{"source": "patent US9248180B2", "about": "“IC31 nanoparticles” (Valneva Austria GmbH, priority 2010, dated 2016)", "key": {"[1]": {"assay": "Viscosity and sterile-filterability of KLK in 10 mM Tris as a function of pH", "format": "physicochemical", "settings": "for Viscosity (cP): 2000 nmol/mL KLK in 10 mM Tris, no salt; for Sterile-filterable: 0.2 μm filter", "protocol": "For sterile filtration, appropriate viscosity of the mixture to be filtered is also critical. Viscosity can be measured e.g. on a Brookfield DV-E rotation viscometer at 20° C. using an LV61 spindle and can be reported as centipoise (cP=milliPascal seconds). Preferred compositions have a viscosity of less than 15 cP. Even more preferred compositions have viscosities of less than 12 cP or even less than 10 cP.\nOne of the key factors for sterile-filterable compositions is viscosity. At a viscosity >15 cP, sterile filtration through a 0.2 μm filter is no longer possible. The final viscosity of the nanoparticulate IC31® composition correlates to the final pH of the composition due to the fact that the viscosity of KLK in solution increases drastically with increasing pH, resulting in non-sterile-filterable formulations at a final pH of around 7.2."}, "[2]": {"test_system": "CD8+ cells from the lungs", "assay": "Cytometric Bead Array of cytokines produced by CD8+ lung cells of vaccinated mice", "format": "in vivo, C57BL/6 mice", "settings": "immunizations d0, d13, d28"}, "[3]": {"settings": "CD8+ lung cells stimulated with Medium"}, "[4]": {"settings": "CD8+ lung cells stimulated with SVN19-28"}, "[5]": {"settings": "CD8+ lung cells stimulated with TRP-2180-188"}}, "note": "Where “and” joins values, the source holds several entries; their conditions need not be identical. Equal values may be shown once."}
{"sequence": "KLKLLLLLKLK [peptide component of IC31®]", "values": [{"measurement": "Viscosity (cP)", "setting": "[1]; pH 6.24", "result": 9.69, "unit": "cP"}, {"measurement": "Sterile-filterable", "setting": "[1]; pH 6.24", "result": "Yes"}, {"measurement": "Viscosity (cP)", "setting": "[1]; pH 6.4", "result": 8.06, "unit": "cP"}, {"measurement": "Sterile-filterable", "setting": "[1]; pH 6.4", "result": "Yes"}, {"measurement": "Viscosity (cP)", "setting": "[1]; pH 6.6", "result": 10.00, "unit": "cP"}, {"measurement": "Sterile-filterable", "setting": "[1]; pH 6.6", "result": "Yes"}, {"measurement": "Viscosity (cP)", "setting": "[1]; pH 6.73", "result": 10.00, "unit": "cP"}, {"measurement": "Sterile-filterable", "setting": "[1]; pH 6.73", "result": "Yes"}, {"measurement": "Viscosity (cP)", "setting": "[1]; pH 6.88", "result": 10.94, "unit": "cP"}, {"measurement": "Sterile-filterable", "setting": "[1]; pH 6.88", "result": "Yes"}, {"measurement": "Viscosity (cP)", "setting": "[1]; pH 7.03", "result": 11.25, "unit": "cP"}, {"measurement": "Sterile-filterable", "setting": "[1]; pH 7.03", "result": "Yes"}, {"measurement": "Viscosity (cP)", "setting": "[1]; pH 7.22", "result": 15.00, "unit": "cP"}, {"measurement": "Sterile-filterable", "setting": "[1]; pH 7.22", "result": "Yes/No*"}, {"measurement": "Viscosity (cP)", "setting": "[1]; pH 7.39", "result": 16.88, "unit": "cP"}, {"measurement": "Sterile-filterable", "setting": "[1]; pH 7.39", "result": "No"}, {"measurement": "Viscosity (cP)", "setting": "[1]; pH 7.7", "result": 16.88, "unit": "cP"}, {"measurement": "Sterile-filterable", "setting": "[1]; pH 7.7", "result": "No"}, {"measurement": "Viscosity (cP)", "setting": "[1]; pH 7.96", "result": 25.00, "unit": "cP"}, {"measurement": "Sterile-filterable", "setting": "[1]; pH 7.96", "result": "No"}, {"measurement": "Viscosity (cP)", "setting": "[1]; pH 8.4", "result": "21.88 cP and 24.38 cP"}, {"measurement": "Sterile-filterable", "setting": "[1]; pH 8.4", "result": "No"}, {"measurement": "Viscosity (cP)", "setting": "[1]; pH 8.8", "result": 87.50, "unit": "cP"}, {"measurement": "Sterile-filterable", "setting": "[1]; pH 8.8", "result": "No"}]}
{"sequence": "SVYDFFVWL [TRP-2180-188]", "values": [{"measurement": "GM-CSF", "setting": "[2]; [3]", "result": 46, "unit": "pg/mL"}, {"measurement": "IFN-γ", "setting": "[2]; [3]", "result": 41, "unit": "pg/mL"}, {"measurement": "IL-6", "setting": "[2]; [3]", "result": 109, "unit": "pg/mL"}, {"measurement": "TNF-α", "setting": "[2]; [3]", "result": 14, "unit": "pg/mL"}, {"measurement": "GM-CSF", "setting": "[2]; [4]", "result": 57, "unit": "pg/mL"}, {"measurement": "IFN-γ", "setting": "[2]; [4]", "result": 199, "unit": "pg/mL"}, {"measurement": "IL-2", "setting": "[2]; [4]", "result": 43, "unit": "pg/mL"}, {"measurement": "IL-6", "setting": "[2]; [4]", "result": 115, "unit": "pg/mL"}, {"measurement": "TNF-α", "setting": "[2]; CD8+ lung cells stimulated with SVN19-28de", "result": 9, "unit": "pg/mL"}, {"measurement": "GM-CSF", "setting": "[2]; [5]", "result": 48, "unit": "pg/mL"}, {"measurement": "IFN-γ", "setting": "[2]; [5]", "result": 301, "unit": "pg/mL"}, {"measurement": "IL-2", "setting": "[2]; [5]", "result": 33, "unit": "pg/mL"}, {"measurement": "IL-6", "setting": "[2]; [5]", "result": 185, "unit": "pg/mL"}, {"measurement": "IL-10", "setting": "[2]; [5]", "result": 56, "unit": "pg/mL"}, {"measurement": "TNF-α", "setting": "[2]; [5]", "result": 24, "unit": "pg/mL"}]}
